Patent US20200224203A1

What was measured:
[1] = biological target: huntingtin (htt) protein, full length, from human fibroblasts, P42858
[2] = biological target: modified htt protein after partial exon 12 skipping (human) (UniProt P42858); assay: cell-based or functional assay

Chain of huntingtin (htt) protein, full length, from human fibroblasts, P42858 (P42858 whole entry): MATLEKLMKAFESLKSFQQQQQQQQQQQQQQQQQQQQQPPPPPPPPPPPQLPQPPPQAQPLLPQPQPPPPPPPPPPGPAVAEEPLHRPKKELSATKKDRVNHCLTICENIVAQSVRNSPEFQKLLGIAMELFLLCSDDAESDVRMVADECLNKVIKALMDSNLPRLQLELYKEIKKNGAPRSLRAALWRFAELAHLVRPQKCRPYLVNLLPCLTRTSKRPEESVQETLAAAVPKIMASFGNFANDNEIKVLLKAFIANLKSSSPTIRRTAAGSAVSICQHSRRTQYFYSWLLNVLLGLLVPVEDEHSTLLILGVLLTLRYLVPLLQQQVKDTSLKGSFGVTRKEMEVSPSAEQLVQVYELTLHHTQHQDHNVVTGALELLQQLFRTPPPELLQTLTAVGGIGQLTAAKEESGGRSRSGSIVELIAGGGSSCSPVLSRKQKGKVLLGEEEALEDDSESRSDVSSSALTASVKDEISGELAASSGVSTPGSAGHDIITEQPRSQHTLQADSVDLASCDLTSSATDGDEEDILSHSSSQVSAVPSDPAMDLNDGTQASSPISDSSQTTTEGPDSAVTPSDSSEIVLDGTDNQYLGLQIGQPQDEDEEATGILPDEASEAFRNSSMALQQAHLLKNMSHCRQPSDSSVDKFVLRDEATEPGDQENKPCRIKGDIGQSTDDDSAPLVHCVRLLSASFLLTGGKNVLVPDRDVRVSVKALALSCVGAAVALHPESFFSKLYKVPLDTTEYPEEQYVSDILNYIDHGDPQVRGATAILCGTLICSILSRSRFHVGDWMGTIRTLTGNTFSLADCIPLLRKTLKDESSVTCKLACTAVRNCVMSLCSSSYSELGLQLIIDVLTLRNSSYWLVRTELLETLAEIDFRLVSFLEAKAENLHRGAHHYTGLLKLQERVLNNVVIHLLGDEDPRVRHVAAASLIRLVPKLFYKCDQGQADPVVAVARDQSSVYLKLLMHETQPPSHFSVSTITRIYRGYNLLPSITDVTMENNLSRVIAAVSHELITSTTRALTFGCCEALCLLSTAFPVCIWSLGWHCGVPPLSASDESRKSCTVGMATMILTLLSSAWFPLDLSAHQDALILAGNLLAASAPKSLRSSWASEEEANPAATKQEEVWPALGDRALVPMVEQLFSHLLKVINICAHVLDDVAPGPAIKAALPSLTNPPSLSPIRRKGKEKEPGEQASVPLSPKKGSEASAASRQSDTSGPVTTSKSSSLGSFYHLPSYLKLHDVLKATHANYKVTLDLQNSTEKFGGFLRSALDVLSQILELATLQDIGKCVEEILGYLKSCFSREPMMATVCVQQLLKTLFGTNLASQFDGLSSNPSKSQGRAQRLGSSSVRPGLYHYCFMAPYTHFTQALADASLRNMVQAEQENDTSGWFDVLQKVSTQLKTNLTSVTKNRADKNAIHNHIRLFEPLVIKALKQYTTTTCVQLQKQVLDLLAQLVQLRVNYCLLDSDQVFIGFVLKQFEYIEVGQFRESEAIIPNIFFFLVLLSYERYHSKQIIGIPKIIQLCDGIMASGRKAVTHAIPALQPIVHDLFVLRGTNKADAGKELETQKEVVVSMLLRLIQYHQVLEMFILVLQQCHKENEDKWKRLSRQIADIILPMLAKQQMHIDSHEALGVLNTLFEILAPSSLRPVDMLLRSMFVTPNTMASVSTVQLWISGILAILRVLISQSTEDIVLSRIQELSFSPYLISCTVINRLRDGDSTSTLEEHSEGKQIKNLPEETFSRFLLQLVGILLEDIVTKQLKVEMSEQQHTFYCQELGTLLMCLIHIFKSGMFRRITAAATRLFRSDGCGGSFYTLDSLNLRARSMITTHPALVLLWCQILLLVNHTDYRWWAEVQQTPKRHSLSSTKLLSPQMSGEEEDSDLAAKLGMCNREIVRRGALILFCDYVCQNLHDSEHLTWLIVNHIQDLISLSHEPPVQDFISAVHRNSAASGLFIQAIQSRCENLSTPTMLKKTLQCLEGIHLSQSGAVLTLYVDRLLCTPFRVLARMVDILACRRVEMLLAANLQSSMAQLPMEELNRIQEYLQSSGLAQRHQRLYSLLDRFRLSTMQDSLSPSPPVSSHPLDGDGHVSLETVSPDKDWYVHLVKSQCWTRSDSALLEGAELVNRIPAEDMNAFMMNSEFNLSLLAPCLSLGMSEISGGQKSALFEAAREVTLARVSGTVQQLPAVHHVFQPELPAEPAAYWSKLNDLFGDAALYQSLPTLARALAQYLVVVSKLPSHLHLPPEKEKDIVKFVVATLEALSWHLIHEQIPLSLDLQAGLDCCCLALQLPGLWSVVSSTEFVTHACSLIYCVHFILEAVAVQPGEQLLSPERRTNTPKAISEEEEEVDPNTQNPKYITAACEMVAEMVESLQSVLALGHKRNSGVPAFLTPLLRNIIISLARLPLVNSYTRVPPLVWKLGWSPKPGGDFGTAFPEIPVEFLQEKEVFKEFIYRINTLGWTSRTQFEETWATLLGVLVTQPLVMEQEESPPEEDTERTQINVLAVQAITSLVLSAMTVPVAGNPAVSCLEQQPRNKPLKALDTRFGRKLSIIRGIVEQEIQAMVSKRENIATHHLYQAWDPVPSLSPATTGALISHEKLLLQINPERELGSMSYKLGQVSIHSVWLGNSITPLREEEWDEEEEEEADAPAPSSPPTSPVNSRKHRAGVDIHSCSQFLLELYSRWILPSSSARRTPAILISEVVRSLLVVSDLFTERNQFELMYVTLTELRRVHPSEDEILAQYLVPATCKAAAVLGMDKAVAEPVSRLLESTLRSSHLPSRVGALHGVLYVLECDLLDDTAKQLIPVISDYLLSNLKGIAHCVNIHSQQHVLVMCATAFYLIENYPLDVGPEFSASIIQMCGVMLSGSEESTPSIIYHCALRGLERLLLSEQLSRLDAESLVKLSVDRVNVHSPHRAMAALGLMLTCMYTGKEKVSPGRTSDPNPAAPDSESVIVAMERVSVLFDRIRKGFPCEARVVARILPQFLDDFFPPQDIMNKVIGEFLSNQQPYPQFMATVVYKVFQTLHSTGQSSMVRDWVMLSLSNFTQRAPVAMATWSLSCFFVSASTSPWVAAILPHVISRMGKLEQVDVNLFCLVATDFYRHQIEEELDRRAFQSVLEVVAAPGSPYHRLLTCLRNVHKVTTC

reduction of 98 kDa N-terminal htt fragments in an in vitro caspase-6 cleavage assay (samples from cells treated with hHTTEx12 7) [2]: 31.9%
B1: recombinant active caspase-6 (protein)
chain: AFYKREMFDPAEKYKMDHRRRGIALIFNHERFFWHLTLPERRGTCADRDNLTRRFSDLGFEVKCFNDLKAEELLLKIHEVSTVSHADADCFVCVFLSHGEGNHIYAYDAKIEIQTLTGLFKGDKCHSLVGKPKIFIIQACRGNQHDVPVIPLDVVDNQTEKLDTNITEVDAASVYTLPAGADFLMCYSVAEGYYSHRETVNGSWYIQDLCEMLGKYGSSLEFTELLTLVNRKVSQRRVDFCKDPSAIGKKQVPCFASMLTKKLHFFPKSN
N-terminal htt fragments detected by Western blot (4C8 antibody) in an in vitro caspase-6 cleavage assay [1]: After samples were incubated with recombinant active caspase-6, N-terminal htt fragments of 98 kDa were detected
